According to patent US20230203182A1 (NAVROGEN, published 2023):

Tests used:
[1] = molecular target: T1, human CA125/MUC16 protein (human, UniProt Q8WXI7 1-14451, limits assumed); test: cell-based or functional assay
[2] = molecular target: T2, human CD20 on Ramos cells (human, UniProt P11836 1-297); test: cell-based fluorescent saturation binding on Ramos cells, Jurkat background subtracted, one-site nonlinear regression
T2 construct: whole, on cells; also called MS4A1
T2 sequence (looked up): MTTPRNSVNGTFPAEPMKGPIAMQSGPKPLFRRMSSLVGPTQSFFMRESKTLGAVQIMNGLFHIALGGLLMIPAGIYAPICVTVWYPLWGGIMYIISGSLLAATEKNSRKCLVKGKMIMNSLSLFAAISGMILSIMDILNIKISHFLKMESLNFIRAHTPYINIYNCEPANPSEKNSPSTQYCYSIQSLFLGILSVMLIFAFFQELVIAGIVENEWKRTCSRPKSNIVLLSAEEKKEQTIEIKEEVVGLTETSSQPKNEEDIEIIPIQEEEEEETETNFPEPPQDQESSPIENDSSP

[3] = molecular target: T1, human CA125/MUC16 protein; test: ELISA, CA125-coated (15 KU/mL) and CD20 peptide-coated wells, biotinylated antibody
Text: FIG. 4. […] Each of these antibodies were biotinylated and retested for CD20 and CA125 binding via ELISA. Briefly, antibodies were biotinylated using the EZ-Link™ Sulfo-NHS-Biotin (ThermoScientific) following the manufacturer’s instructions. Biotinylated antibodies where quantified by Nanodrop and validated for signal intensity using an anti-IgG ELISA capture assay to measure the signal intensity for each antibody. […] Wells were washed and then secondarily probed with streptavidin-HRP and quantified using TMB substrate as described above on a Varioskan plate reader at 450 nm. […] Any signal greater than a 20% decrease in CA125 was considered positive.

[4] = molecular target: T3, human CD16a (Fc-gamma activating receptor FCGR3A), biotinylated (human, UniProt P08637 17-208, limits assumed, biotinylated); test: CD16a ELISA, percentage of binding with CA125 versus no CA125 (FIG. 7A)
T3 construct: Soluble biotinylated probe in ELISA; construct not described; also called CD16a-biotin; Fc receptor

[5] = molecular target: T1, human CA125/MUC16 protein; test: direct binding ELISA, CA125-coated wells, biotinylated C4B

T3 sequence (P08637 17-208 limits assumed): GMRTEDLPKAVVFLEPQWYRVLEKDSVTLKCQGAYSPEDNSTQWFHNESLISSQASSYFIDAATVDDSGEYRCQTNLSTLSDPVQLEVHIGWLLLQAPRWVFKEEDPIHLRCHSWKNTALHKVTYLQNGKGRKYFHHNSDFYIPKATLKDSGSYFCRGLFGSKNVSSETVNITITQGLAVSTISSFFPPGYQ

B1: rituximab (parental antibody) (antibody, human IgG1, kappa)
heavy: not shown
light: QIVLSQSPAILSASPGEKVTMTCRASSSVSYIHWFQQKPGSSPKPWIYATSNLASGVPVRFSGSGSGTSYSLTISRVEAEDAATYYCQQWTSNPPTFGGGTKLEIKRTVAAPSVFIFPPSDEQLKSGTASVVCLLNNFYPREAKVQWKVDNALQSGNSQESVTEQDSKDSTYSLSSTLTLSKADYEKHKVYACEVTHQGLSSPVTKSFNRGEC
notes: IgG1-type anti-CD20 antibody; Biotinylated when used as probe in the CA125 and CD20-peptide ELISAs; also called RTX; RTX-WT
B1 was tested, and the “suppression of CDC activity by CA125 (Daudi cells)” value (“suppression of CDC activity” below) [1] was 32% and the Kd [2] was 20.6 nM.

B2: RTX-MT clone 164 (antibody, human IgG1, kappa, V domains shown)
VH: QVQLQQPGAELVKPGASVKMSCKASGYTFTSYNMHWVKQTPGRGLEWIGAIYPGNGDTSYNQKFKGKATLTADKSSSTAYMQLSSLTSEDSAVYYCARSTYYCGDWYFNVWGAGTTVTVSA
VL: QIVLSQSPAILSASPGEKVTMTCRASSSVSYIHWFQQKPGSSPKPWIYATSNLASGVPVRFSGSGSGTSYSLTISRVEAEDAATYYCQQWTSNPPTFGGGTKLEIKR
notes: Biotinylated in the ELISAs
For B2, the “suppression of CDC activity” value [1] was no more than 15% and the “percent decrease in CA125 binding vs parental (ratio of CD20 to CA125 binding), selection criterion” value [3] was greater than 20%.

B3: RTX-MT clone 199 (antibody, human IgG1, kappa, V domains shown)
VH: QVQLQQPGAELVKPGASVKMSCKASGYTFTSYNMHWVKQTPGRGLEWIGAIYPGNGDTSYNQKFKGKATLTADKSSSTAYMQLSSLTSEDSAVYYCARSTYYGGDWYLNVWGAGTTVTVSA
VL: QIVLSQSPAILSASPGEKVTMTCRASSSVSYIHWFQQKPGSSPKPWIYATSNLASGVPVRFSGSGSGTSYSLTISRVEAEDAATYYCQQWTSNPPTFGGGTKLEIKR
notes: Biotinylated in the ELISAs
For B3, the “suppression of CDC activity” value [1] was no more than 15% and the “percent decrease in CA125 binding vs parental (ratio of CD20 to CA125 binding), selection criterion” value [3] was greater than 20%.

B4: RTX-MT clone 198 (antibody, human IgG1, kappa, V domains shown)
VH: QVQLQQPGAELVKPGASVKMSCKASGYTFTSYNMHWVKQTPGRGLEWIGAIYPGNGDTSYNQKFKGKATLTADKSSSTAYMQLSSLTSEDSAVYYCARSTYYGGDWCFNVWGAGTTVTVSA
VL: QIVLSQSPAILSASPGEKVTMTCRASSSVSYIHWFQQKPGSSPKPWIYATSNLASGVPVRFSGSGSGTSYSLTISRVEAEDAATYYCQQWTSNPPTFGGGTKLEIKR
notes: Biotinylated in the ELISAs
With B4 the “suppression of CDC activity” value [1] was no more than 15% and the “percent decrease in CA125 binding vs parental (ratio of CD20 to CA125 binding), selection criterion” value [3] was greater than 20%.

B5: RTX-MT clone 166 (antibody, human IgG1, kappa)
heavy: not shown
light: QIVLSQSPAILSASPGEKVTMTCRASSSVSYIHWFQQKPGSSPKPWIYATSNLASGVPVRFSGSGSGTSYSLTISRVEAEDAATYYCQQWTSNPPTFGGGTKLEIKRTVAAPSVFIFPPSDEQLKSGTASVVCLLNNFYPREAKVQWKVDNALQSGNSQESVTEQDSKDSTYSLSSTLTLSKADYEKHKVYACEVTHQGLSSPVTKSFNRGEC
notes: Biotinylated in the ELISAs; also called N109D+P131S+S136Y; triple mutant RTX-MT clone 166
B5 was tested, and the “suppression of CDC activity” value [1] was no more than 15% and the binding result [4] was “binds”.

B6: RTX-MT clone 148 (antibody, human IgG1, kappa, V domains shown)
VH: QVQLQQPGAELVKPGASVKMSCKASGYTFTSYNMHWVKQTPGRGLEWIGAIYPGNGDTSYNQKFKGKATLTADKSSSTAYMQLSSLTSEDSAVYYCARSTYFGGDWYFNVWGAGTTVTVSA
VL: QIVLSQSPAILSASPGEKVTMTCRASSSVSYIHWFQQKPGSSPKPWIYATSNLASGVPVRFSGSGSGTSYSLTISRVEAEDAATYYCQQWTSNPPTFGGGTKLEIKR
notes: Biotinylated in the ELISAs
With B6 the “suppression of CDC activity” value [1] was no more than 15% and the “percent decrease in CA125 binding vs parental (ratio of CD20 to CA125 binding), selection criterion” value [3] was greater than 20%.

B7: RTX N109D (antibody, human IgG1, kappa)
heavy: not shown
light: QIVLSQSPAILSASPGEKVTMTCRASSSVSYIHWFQQKPGSSPKPWIYATSNLASGVPVRFSGSGSGTSYSLTISRVEAEDAATYYCQQWTSNPPTFGGGTKLEIKRTVAAPSVFIFPPSDEQLKSGTASVVCLLNNFYPREAKVQWKVDNALQSGNSQESVTEQDSKDSTYSLSSTLTLSKADYEKHKVYACEVTHQGLSSPVTKSFNRGEC
notes: also called RTX-MT N109D; RTX MT N109D
B7 gave a Kd [2] of 30.5 nM.

B8: RTX-MT N109D+S136Y (antibody, human IgG1, kappa)
heavy: not shown
light: QIVLSQSPAILSASPGEKVTMTCRASSSVSYIHWFQQKPGSSPKPWIYATSNLASGVPVRFSGSGSGTSYSLTISRVEAEDAATYYCQQWTSNPPTFGGGTKLEIKRTVAAPSVFIFPPSDEQLKSGTASVVCLLNNFYPREAKVQWKVDNALQSGNSQESVTEQDSKDSTYSLSSTLTLSKADYEKHKVYACEVTHQGLSSPVTKSFNRGEC
B8: binds [4].

B9: human complement protein C4B (other)
chain: KPRLLLFSPSVVHLGVPLSVGVQLQDVPRGQVVKGSVFLRNPSRNNVPCSPKVDFTLSSERDFALLSLQVPLKDAKSCGLHQLLRGPEVQLVAHSPWLKDSLSRTTNIQGINLLFSSRRGHLFLQTDQPIYNPGQRVRYRVFALDQKMRPSTDTITVMVENSHGLRVRKKEVYMPSSIFQDDFVIPDISEPGTWKISARFSDGLESNSSTQFEVKKYVLPNFEVKITPGKPYILTVPGHLDEMQLDIQARYIYGKPVQGVAYVRFGLLDEDGKKTFFRGLESQTKLVNGQSHISLSKAEFQDALEKLNMGITDLQGLRLYVAAAIIESPGGEMEEAELTSWYFVSSPFSLDLSKTKRHLVPGAPFLLQALVREMSGSPASGIPVKVSATVSSPGSVPEVQDIQQNTDGSGQVSIPIIIPQTISELQLSVSAGSPHPAIARLTVAAPPSGGPGFLSIERPDSRPPRVGDTLNLNLRAVGSGATFSHYYYMILSRGQIVFMNREPKRTLTSVSVFVDHHLAPSFYFVAFYYHGDHPVANSLRVDVQAGACEGKLELSVDGAKQYRNGESVKLHLETDSLALVALGALDTALYAAGSKSHKPLNMGKVFEAMNSYDLGCGPGGGDSALQVFQAAGLAFSDGDQWTLSRKRLSCPKEKTTRKKRNVNFQKAINEKLGQYASPTAKRCCQDGVTRLPMMRSCEQRAARVQQPDCREPFLSCCQFAESLRKKSRDKGQAGLQRALEILQEEDLIDEDDIPVRSFFPENWLWRVETVDRFQILTLWLPDSLTTWEIHGLSLSKTKGLCVATPVQLRVFREFHLHLRLPMSVRRFEQLELRPVLYNYLDKNLTVSVHVSPVEGLCLAGGGGLAQQVLVPAGSARPVAFSVVPTAATAVSLKVVARGSFEFPVGDAVSKVLQIEKEGAIHREELVYELNPLDHRGRTLEIPGNSDPNMIPDGDFNSYVRVTASDPLDTLGSEGALSPGGVASLLRLPRGCGEQTMIYLAPTLAASRYLDKTEQWSTLPPETKDHAVDLIQKGYMRIQQFRKADGSYAAWLSRGSSTWLTAFVLKVLSLAQEQVGGSPEKLQETSNWLLSQQQADGSFQDLSPVIHRSMQGGLVGNDETVALTAFVTIALHHGLAVFQDEGAEPLKQRVEASISKASSFLGEKASAGLLGAHAAAITAYALTLTKAPADLRGVAHNNLMAMAQETGDNLYWGSVTGSQSNAVSPTPAPRNPSDPMPQAPALWIETTAYALLHLLLHEGKAEMADQAAAWLTRQGSFQGGFRSTQDTVIALDALSAYWIASHTTEERGLNVTLSSTGRNGFKSHALQLNNRQIRGLEEELQFSLGSKINVKVGGNSKGTLKVLRTYNVLDMKNTTCQDLQIEVTVKGHVEYTMEANEDYEDYEYDELPAKDDPDAPLQPVTPLQLFEGRRNRRRREAPKVVEEQESRVHYTVCIWRNGKVGLSGMAIADVTLLSGFHALRADLEKLTSLSDRYVSHFETEGPHVLLYFDSVPTSRECVGFEAVQEVPVGLVQPASATLYDYYNPERRCSVFYGAPSKSRLLATLCSAEVCQCAEGKCPRQRRALERGLQDEDGYRMKFACYYPRVEYGFQVKVLREDSRAAFRLFETKITQVLHFTKDVKAAANQMRNFLVRASCRLRLEPGKEYLIMGLDGATYDLEGHPQYLLDSNSWIEEMPSERLCRSTRQRAACAQLNDFLQEYGTQGCQV
notes: also called enhancer protein
B9: no binding [5].
